Assay results from the supplement of paper PMC9732359.
± gives the uncertainty stated by the source.

Assay: protein stability index of a GFP-peptide fusion (yeast GPS) (PSI 1-4); higher = more stable; sorted into four equal gates, so the index is relative within each strain
Method in brief: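 The protein stability index of a peptide was calculated by multiplying its read frequency in each gate by that gate's number and adding the products. The peptides were tiled 17-residue stretches of yeast proteins, fused downstream of GFP on a Cherry-expressing plasmid and carried in yeast as a pooled library. Mid-log cultures in leucine-free medium were sorted into four equal gates by GFP/Cherry ratio, and each gate's plasmids were PCR-amplified and Illumina-sequenced.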

Sequence	protein stability index (doa10∆)	protein stability index (pdr5∆)	protein stability index (san1∆)	protein stability index (ubr1∆)
QQQQQQQQGQIPQSQQV [SNF5]	2.231 ± 0.016	2.63 ± 0.018	2.257 ± 0.02	2.511 ± 0.02
QQVPPLPDELTLSYDDI [DLS1]	2.56 ± 0.045	2.83 ± 0.055	2.69 ± 0.05	2.74 ± 0.039
QQWGNDFYKRDPRIAPL [FAS2]	1.88 ± 0.058	2 ± 0.048	1.87 ± 0.1	2 ± 0.05
QRQDFERVRLRPEQLSN [SNF6]	1.98 ± 0.05	2.43 ± 0.062	2.21 ± 0.064	2.25 ± 0.034
QSEDLSHAVEFFMSERS [YML103C/NUP188]	3.29 ± 0.077	3.37 ± 0.089	3.25 ± 0.066	3.18 ± 0.059
QSKIDLTKKKNEEINKK [SEM1]	–	3.47 ± 0.24	2.87 ± 0.14	3.21 ± 0.076
QSNYGIYSSDAQGDPNL [NUT1]	3.03 ± 0.077	2.92 ± 0.065	2.51 ± 0.056	3.06 ± 0.063
QSYFSQLKFEGFALNSD [BRR2]	1.35 ± 0.05	1.26 ± 0.045	1.17 ± 0.094	1.43 ± 0.04
QTATQLLERGRLRKRVT [SMC2]	3.04 ± 0.11	3.04 ± 0.083	2.92 ± 0.064	2.42 ± 0.078
QTEIKDIILGQNIKAPS [PRP8]	2.6 ± 0.087	3.04 ± 0.074	2.58 ± 0.11	2.78 ± 0.07
QTQAIAQQQQLSNYPQQ [YGR119C/NUP57]	2.79 ± 0.058	3.15 ± 0.062	2.58 ± 0.048	2.97 ± 0.046
QTRWGLPSGRQDGVLLV [FAS2]	1.65 ± 0.12	–	1.59 ± 0.24	1.32 ± 0.15
QTVSNKEDAKATMENIQ [SRP54]	2.98 ± 0.062	3.18 ± 0.066	2.91 ± 0.075	2.99 ± 0.056
QVARTNLDGTKAVKLRK [ROX3]	3.03 ± 0.07	3.13 ± 0.063	2.98 ± 0.051	3.15 ± 0.058
QVGERIKQTFKNDLFVI [RPO21]	2.38 ± 0.066	2.36 ± 0.07	2.56 ± 0.06	2.49 ± 0.064
QVGLNFELSFTGAPPYY [YMR129W/POM152]	2.35 ± 0.053	2.08 ± 0.061	1.58 ± 0.061	1.93 ± 0.031
QVNQLQRILEVLGTPDQ [SSN3]	1.49 ± 0.043	1.69 ± 0.037	1.34 ± 0.05	1.51 ± 0.038
QVSNFAPQVYIITKNEN [GAL11]	2.96 ± 0.16	1.98 ± 0.11	2.38 ± 0.26	1.67 ± 0.084
QVVLGGTSKYLINGHRA [SMC2]	2.88 ± 0.059	3.19 ± 0.066	2.97 ± 0.062	2.96 ± 0.065
QWSATWIAMRREKRDRT [PRP8]	2.23 ± 0.089	2.64 ± 0.081	2.76 ± 0.18	2.73 ± 0.095
QYIRTLVSEARTLWPEF [SSN8]	2.61 ± 0.052	2.67 ± 0.052	2.39 ± 0.06	2.42 ± 0.046
RAANQGALPPDLSLIVK [CYT1]	2.95 ± 0.11	3 ± 0.074	3.03 ± 0.18	2.87 ± 0.074
RAIPFRRFNSSIGRTAQ [RPL17A]	2.91 ± 0.07	2.87 ± 0.08	2.89 ± 0.097	2.68 ± 0.06
RAIRSEKYGKQVYDLLK [BRR2]	–	–	2.94 ± 0.18	3.26 ± 0.13
RALVEHIIQAKADAQRE [RPL19A]	1.67 ± 0.26	–	–	–
RANLRKYREGQVLFQGL [POP1]	2.83 ± 0.095	2.31 ± 0.071	2.02 ± 0.088	2.96 ± 0.063
RAPIYHSKFRSSSGNTW [YML031W/NDC1]	2.43 ± 0.11	2.34 ± 0.06	3.15 ± 0.084	2.59 ± 0.06

Sequence	protein stability index (doa10∆)	protein stability index (pdr5∆)	protein stability index (san1∆)	protein stability index (ubr1∆)
RARGPMQVLTRQPVEGR [RPB2]	2.88 ± 0.2	2.36 ± 0.21	2.79 ± 0.11	2.98 ± 0.24
RASKALIERYYPKLTLD [RPS17A]	–	2.51 ± 0.14	–	2.37 ± 0.25
RAVLTPLITRHCYPRQL [RRP46]	2.4 ± 0.048	2.18 ± 0.037	2.36 ± 0.052	2.39 ± 0.033
RCIGDSDNVSFEIQGVP [YMR129W/POM152]	3.17 ± 0.1	3.39 ± 0.085	3.28 ± 0.059	3.35 ± 0.06
RDDGKRELLVEGYGLRD [RPO31]	2.4 ± 0.079	2.56 ± 0.072	2.72 ± 0.077	2.74 ± 0.068
RDKVCKQINEARDEILP [PGD1]	1.77 ± 0.091	1.6 ± 0.14	1.5 ± 0.16	–
RDLILTEYGRKYNVNIS [PRP8]	2.2 ± 0.18	2.42 ± 0.098	3.14 ± 0.23	2.28 ± 0.059
RDMIMKRNSDKVEYKIV [ITC1]	1.78 ± 0.078	1.83 ± 0.078	1.85 ± 0.12	1.31 ± 0.047
RDYLVDTLKLRENLHIL [RRP6]	3.52 ± 0.098	3.29 ± 0.096	3.4 ± 0.069	3.29 ± 0.084
REDIDDPLAKVNVLLQS [BRR2]	2.91 ± 0.12	3.04 ± 0.088	3.19 ± 0.092	2.96 ± 0.11
REEAIGFIRGSNKFAEV [SMC3]	3.01 ± 0.093	2.94 ± 0.074	2.95 ± 0.094	2.67 ± 0.08
REIHNEAESQLRAAQQQ [FAS2]	2.91 ± 0.088	2.36 ± 0.07	2.86 ± 0.076	2.91 ± 0.053
RELFVMAREHAPSIIFM [RPT6]	1.82 ± 0.078	1.99 ± 0.085	1.4 ± 0.23	1.71 ± 0.078
RELTKNILWRIADKTTY [SIR4]	3.02 ± 0.094	2.6 ± 0.065	2.68 ± 0.11	3.02 ± 0.05
RENALYDYYALQLLPLQ [SNF2]	2.63 ± 0.078	2.74 ± 0.045	2.72 ± 0.056	2.77 ± 0.042
RENLHILNEVFTNPSIV [RRP6]	2.26 ± 0.076	2.93 ± 0.063	2.5 ± 0.058	2.25 ± 0.053
RENVKSKDEPVSKAVES [SIR4]	3.58 ± 0.15	3.73 ± 0.12	2.93 ± 0.19	3.31 ± 0.18
REVENSVSLLNSDIANL [SMC1]	2.8 ± 0.063	2.59 ± 0.077	2.99 ± 0.07	2.86 ± 0.072
RFDAQTGSDREVQRILI [RPT3]	3.09 ± 0.12	3.08 ± 0.14	3.43 ± 0.1	3.4 ± 0.16
RFKMERAGVTHVLSRLS [RET1]	–	1.55 ± 0.18	1.2 ± 0.27	1.3 ± 0.23
RFNAKVSMVKRAIDSLI [CDC53]	1.86 ± 0.071	2.12 ± 0.074	2.17 ± 0.12	2 ± 0.042
RFRGKRVVYLKHLEDNT [RPL6A]	2.21 ± 0.068	2.37 ± 0.053	2.15 ± 0.1	2.31 ± 0.049
RFSPDEDFEHNNLSSMN [MCD1]	2.69 ± 0.094	3.35 ± 0.18	3.09 ± 0.091	3.18 ± 0.074
RFVMPNQLLAALVAYTP [RRP6]	1.83 ± 0.041	1.84 ± 0.045	1.39 ± 0.07	1.71 ± 0.032
RFYELEESLTVLNCLRT [YJR042W/NUP85]	2 ± 0.14	2.25 ± 0.12	1.7 ± 0.29	2.62 ± 0.11
RGAWGKPHGLAARVDIG [RPL10]	2.59 ± 0.064	1.99 ± 0.04	1.68 ± 0.08	2.35 ± 0.037
